Assay: yeast display, Sf9 membrane polyspecificity reagent, FACS + sequencing; frameworks hold sequencing errors
Outline: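 Synthetic nanobody libraries on Saccharomyces cerevisiae BJ5465 were galactose-induced for 36–48 hours, stained 1 hour at 4 °C with 10% biotinylated, detergent-solubilized Sf9 membrane reagent and enriched on streptavidin microbeads. FACS then separated cells into low and high (top ~1%) gates by anti-HA (expression) and streptavidin (reagent binding) fluorescence. Genes were colony-PCR amplified, MiSeq 2 × 250 sequenced and CDR-length filtered. A clone's polyreactivity label is that of its gate of origin.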

| Sequence | polyreactivity (PSR sort gate) |
| --- | --- |
| QVQLVESGGGLVQAGRSLRLSCAASGITFGRNTMGWYRQAPGKERELVAAIDSGGNTYADSVKGRFTISRDNAKNTVYLQMNSLKPEDTAVYYCAVDGGEFSSYGYWGQGTQVTVSS | low polyreactivity |
| QVQLVESGGGLVQAGRSLRLSCAASGLIFPWNAMGWYRQAPGKQRELVAAINGRDGSTYYADSVKGRFTISRDNAKNTVYLQMNSLKPEDTAVYYCAKGPSGVRSYREYDSWGQGTQVTVSS | low polyreactivity |
| QVQLVESGGGLVQAGRSLRLSCAASGLTFSLYAMGWSRQAPGKERELVAANSWTGGSTYYADSVKGRFTISRDNAKNTVYLQMNSLKPEDTAVYYCNARYTLFARYGYDYWGQGTQVTVSS | low polyreactivity |
| QVQLVESGGGLVQAGRSLRLSCAASGRIFGTYAMGWYRQAPGKERELVAAITQSGGRTYYADSVKGRFTISRDNAKNTVYLQMNSLKPEDSAVYFCNIVTYRGIGLGYDYWGHGTQVTVSS | high polyreactivity |
| QVQLVESGGGLVQAGRSLRLSCAASGRIFIWYRMGWYRQAPGKERELVSAITRRGGSTYYADSVKGRFTISRDNAKNTVYLQMNSLKPVDTAVYYCNADAIVSPYRLWTVTYSYWGQGTQVSVSS | low polyreactivity |
| QVQLVESGGGLVQAGRSLRLSCAASGRTFVYYAMGWYRQAPGKERELVATISSSDSTNYADSVKGRFTISRDNAKNTVYLQMNSLKPEDTAVYYCAAGPKGGGYYDPFDYWGQGTQVTVSS | low polyreactivity |
| QVQLVESGGGLVQAGRSLRLSCAASGSIFTYYAMGWYRQAPGKERELVAAINWSDSSTYNADSVKGRFTISRDNAKNTVYLQMNSLKPEDTAVYDCAATNYADGDYWGQGTQVTVSS | low polyreactivity |
| QVQLVESGGGLVQAGRSLRLSCAASGSILGGNAMGWYRQAPGKDRELVAAITFSGGGTYYADSVKGRFTISRDNAKNTVDFQMNSLKPEDTAVYYCAADKVGYTYEFDYWGQGTQVTVSS | low polyreactivity |
| QVQLVESGGGLVQAGRSLRLSCAASGSILLYYTMGWYRQAPGKERELVASITSGGRTYYADSVKGRFTISRDNAKNTVYLQMNSLKPEDTAVYYCAADVWKLYDYWGQGTQVTVSS | low polyreactivity |
| QVQLVESGGGLVQAGRSLRLSCAASGSTYGYYAMGWSRQAPGKERELVAAISSTGGRTYYADSVKGRFTISRDNAKNTVYVQMNSLKPEDTAVYYCAARQLSSHYDYWGQGPQVTVSS | low polyreactivity |
| QVQLVESGGGLVQAGRSLRLSCAATGLIFLLNAMGWYRQAPGKERELVAVITRVGDTNYADSVKGRFTISRDNAKNTVYLQMNSLKPEDTAVYSCAATSLTYEGYYWRQGTQVTVSS | low polyreactivity |
| QVQLVESGGGLVQAGRSLRLSCAPSGSTFKHNAMGWYRQAPGKERELVATITLRDGSTYYADSVKGRFTISRDNAKNTVYLQMNSLKPEDTAVYYCATYYSAINYGWSKTILYDYWGQGTQVTVSS | low polyreactivity |
| QVQLVESGGGLVQAGRSLRLSCASSGSPFDPYGKGRYRQAPGKEWEWVAAITASGRTNYADSVKGRFTISRDTAKNTVYLQMNSLKPEDTAFYYCATRKELYFYRGYEYWGQGTQVTVSS | low polyreactivity |
| QVQLVESGGGLVQAGRSLRLSCPAYGFTFVINDMGWYRQAPGKEREFVADITSGGDTYYADSVKGRFTISRDNAKNTVYLQMNSLKPEDTAVFYCAADIYPDWIYLLYGYWGQGTQVTVSS | low polyreactivity |
| QVQLVESGGGLVQAGRSLRLTCAASGFTFADNTMGWYRQAPGKDRELVAAINDAGGTNYADSVKGRFTISRDNEKNTVYLQMNSLKAEDTAVYYCAADGRIYLTYHEMEYWGQGTQVTVSS | low polyreactivity |
| QVQLVESGGGLVQAGRSLRLTCAASGSIFYYYAMGWYRQAPGNERELVAAISSGGRTYYADSVKGRFTISRENANNNVYLQMKSLKTEDTAVYYCAASGGSYSVGRYYYWGQGSQVTVSS | high polyreactivity |
| QVQLVESGGGLVQAGSSLRLSCAASGGTFYINTKGWYRKAPGKERELVATITIVVSTKYADSVKGRFTISRDNAKNTVYLQMNSLKPEDTAVYYCAKDDVYRDSYLVFDGEMDYWGQGTQVTVSS | low polyreactivity |
| QVQLVESGGGLVQAGSSLRLSCAASGSIFPVYAMGWYRQSPGKERELVAAISCIGGGTYYADSVKGRFTISRDNAKNTVYLQMNSLKPEDTAVYYCAAVPYTSEYDYWGQGTQVTVSS | high polyreactivity |
| QVQLVESGGGLVQAGSSLRLSCAASGSTYAFYALGWYRQAPGKAMELVDAITSGGTTNYADSVKGRFTISRDNAKNTVYFQMISLKPEDTAVYYCNAYYLGWYRVRAVTGYDYWGQGTQVTLSS | low polyreactivity |
| QVQLVESGGGLVQAGVSLPLICAASGFTIAYYTMGWYRQAPGKERELVAAISRRGSSTYYADSVMGRFTISRDNAKNTVDLQMNSLKPEDTAVYYCNKYSVLTPGYYYWGQGTQVTVSS | high polyreactivity |
| QVQLVESGGGLVQAGVSLRLRCASSGFTFRPYAIGWYRQAPGKERELVAAITSGDSTNYADSVKGRFTISRDNEKNTVYLQMNSLKREDTAVYYCAADSTGRPSVSYDYWGQGTQVTVSS | low polyreactivity |
| QVQLVESGGGLVQAGVSLRLSCAASARSFAWKAMVWYRQAPGKERELVAAITWSGGSTYYADSVKGRFTISRDNGKNTVYFQLNSLKQEDTAVYYCNKLYPYYATHTTRGLDYWGQGTQVTVSS | high polyreactivity |

| Sequence | polyreactivity (PSR sort gate) |
| --- | --- |
| QVQLVESGGGLVQAGVSLRLSCAASGFIFNIYAMGWYRQAPGKERELVAAISWRGGSTYYADSVKGRFTISRDNAKNTVYLQMNSLKPEYTAVYYCDVEDVWVGVFGDYDYWGEGTQVTVSS | low polyreactivity |
| QVQLVESGGGLVQAGVSLRLSCAASGFIFVSYAMGWYRQAPGIERELVAAIDRIGGITYYADSVKGRFTISRDNAKNTVYLQMNSLKPVDTAVYYCAAAARYATVRVGREYYWGQGTQVTVSS | low polyreactivity |
| QVQLVESGGGLVQAGVSLRLSCAASGFIFYWYVMGWYRHAPGKERELVAGISKNGTNTYYADSVKGRFTISRDNAKNTVYLQMNSLKPEDTAVYYCAAAKCRTKYDYWGQGTQVTVSS | high polyreactivity |
| QVQLVESGGGLVQAGVSLRLSCAASGFTFAYYAMGWYRQAPGKERELVAAITSGGRTNYADSVKGRFTISRDNAKNTGYLQMISLKAEDTAVSYCAKYRRGGSRHYSVFNHDYWGLGTQVTVSS | high polyreactivity |
| QVQLVESGGGLVQAGVSLRLSCAASGFTIKLYAMGWYRQAPGKERELVAAISSSGGSTYYADSVKGRFTISRDNAKNTVYLQMISLKPEDTAVYYCAARTRHVHYGYWGQGTQVTVSS | high polyreactivity |
| QVQLVESGGGLVQAGVSLRLSCAASGGIFGNYAMGGYRQAPAKERELVAAINGGTSTYYADSVKGRFTISRDNAKNTVYLQMNCLKPEDTAGYYCAADWRYLYYALDYWGQGTQVTVSS | low polyreactivity |
| QVQLVESGGGLVQAGVSLRLSCAASGGTFRPYAMGWYRQERGKERELVAAISYTGSTYYADSVKWRFTISRDNAKNTVYLQMNSLKPEDTGVYYCAKDFWYPPRFDYWGQGTQVTVSS | low polyreactivity |
| QVQLVESGGGLVQAGVSLRLSCAASGLTFGAYAMGWYRQAPGKERELVAAINVSGGSTYYADSVKGRFTISRDNAKNTVYLQMNSLKPEDTAVYYCNAGLVLGGIFIPLYDYWGQGTQVTVSS | high polyreactivity |
| QVQLVESGGGLVQAGVSLRLSCAASGLTFNYYDMGWYRQAPGKERELVAAISRSGTNTSYADSEKGRFTISRDNAKNTVYLQMNSLKPEDTAVYYCNADYYSRIVGVRIYDYWGQGTQVTVSS | low polyreactivity |
| QVQLVESGGGLVQAGVSLRLSCAASGLTFPGYAMGWYRQATGKQRELVAAISRRGGSTYYADSVKGRFTISRDNEKNTVYLKMNSLKTEDTAVYYCNAVIRRYFVPSSYDYWGQGTQVTVSS | high polyreactivity |
| QVQLVESGGGLVQAGVSLRLSCAASGNTFWVYAKGSYRQAPGKARELVAAMTRGGSTNYEDSVKGRFTISRDNAKNTVYFQMNSLKPEDTAGYYCAAESFIYFPYKMDYWGQGTQVTVSS | low polyreactivity |
| QVQLVESGGGLVQAGVSLRLSCAASGRIFFPNGMGCYRQAPGKESELVATISRIGGSTYYADSVKGRFTISRDNAKNTVYLQMNSLKPEDTAVYYFAAQYSYGVYWTLPYGYNYWGQGTQVTVSS | low polyreactivity |
| QVQLVESGGGLVQAGVSLRLSCAASGRIFHFYAMGCYRQAPGKERELVASITWRGGRTYYADSVKARFTISRDNAKNTVFLQMNSLKPEDTAVYYCAADFRSGFSSSTTPVQSDWGQGTQVTVSS | low polyreactivity |
| QVQLVESGGGLVQAGVSLRLSCAASGRIFPTNAMGWYRQAPGKERELVAAIPVSGGSTYYADSVKGRFTISRDNAKNTVYLQMNSLKPEDTAVYYCAVDDRASVGSRLDHWGQGTQVTVSS | low polyreactivity |
| QVQLVESGGGLVQAGVSLRLSCAASGRIFSPYAMGWYRQAPGKERELVAAIDWDGGGTYYADSVKGRFTISRDNAKNTVYLQMNSLKPEDTAVYYCAAETDLANGTSPSDYCGQGTQVTVSS | low polyreactivity |
| QVQLVESGGGLVQAGVSLRLSCAASGRILHGYAMGWYRQAPGKEREFVAAITSSGGRTYYADSVKGRFTISRDNAKNTVYLQMNSLKPDDTAVYYCAADRPAYRTGDSKYDYWGLGTQVTVSS | low polyreactivity |
| QVQLVESGGGLVQAGVSLRLSCAASGRISVFYTMGWYRQAPGKERELVAVNRTSGGRTNYADSVKGRFTISRDNAKNTVDLQMNSLKPEDTAVYYCAARVVRYGYKYYYWGQGTQVTVSS | low polyreactivity |
| QVQLVESGGGLVQAGVSLRLSCAASGRTLPRYAMGWYRQAPGKEREFVAAITFGGDSTYYADSVKGRFTISRDNAKNTVYLQMNSLKPEDTAVYSCAAKSFRGQRFGYWGQGTQVTVSS | high polyreactivity |
| QVQLVESGGGLVQAGVSLRLSCAASGSIFDFYAMGWYRQAPGKERELVATITASGGSTYYADSVKGRFTISRDNAKNTVYLQMNSLKPEDTAVYYCNADSVYWGQGTQVTVSS | low polyreactivity |
| QVQLVESGGGLVQAGVSLRLSCAASGSIFDSNAMGWYRQAPGKERELVATISSVGSTNYADSVKGRFTISRDNAKNTVYLQMNSLKPEDTAVYYCARVVDAQGYYSAASGGYYWGQGTQVSVSS | low polyreactivity |
| QVQLVESGGGLVQAGVSLRLSCAASGSIFGWYAMGWYRQAPGKERELVAGITRSGGSTYYADSVKGRFTISRDNAKNNVYLQMDSLNPEDTAVYYCNADLYRKRAWGSRDGSWGQGTQVTVSS | low polyreactivity |

Reference: the nanobody polyreactivity screen of Harvey et al. (2022)
